The values below are quoted from earlier work in publication PMC10062658.

The target in the data set is PTH1R (Homo sapiens) (UniProt Q03431).
Chain of UniProt Q03431 (Q03431 27-593): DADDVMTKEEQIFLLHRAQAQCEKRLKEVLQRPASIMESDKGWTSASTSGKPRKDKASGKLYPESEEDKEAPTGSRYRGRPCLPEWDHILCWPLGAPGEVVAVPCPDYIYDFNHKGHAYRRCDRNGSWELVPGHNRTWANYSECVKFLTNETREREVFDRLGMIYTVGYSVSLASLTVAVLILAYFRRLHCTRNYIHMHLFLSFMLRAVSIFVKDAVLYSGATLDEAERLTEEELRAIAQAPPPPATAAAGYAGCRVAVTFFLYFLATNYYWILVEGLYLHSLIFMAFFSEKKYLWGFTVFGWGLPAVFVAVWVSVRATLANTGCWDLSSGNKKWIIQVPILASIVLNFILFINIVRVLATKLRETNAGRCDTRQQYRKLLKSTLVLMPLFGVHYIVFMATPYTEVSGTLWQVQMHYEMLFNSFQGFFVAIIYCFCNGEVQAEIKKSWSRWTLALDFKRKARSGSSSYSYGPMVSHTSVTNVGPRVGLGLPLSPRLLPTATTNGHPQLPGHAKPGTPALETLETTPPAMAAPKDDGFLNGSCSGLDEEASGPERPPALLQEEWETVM

For the substance PTH (from UniProt P01270), the Kd was 1 nM.

A word on the Kd: it is a measure of binding affinity in units of concentration.
